Assay results: the DeepSol protein solubility set

Assay: soluble on expression in E. coli; label from the status in PepcDB or PDB records
In the case of “MGSDKIHHHHHHMTSQYKASRFATPRDMPEQTYRLSNVCLPAPLSMGELETFSAISRQVSPLRKRHTLFEQGEAFRSLYIVRCGSLKQVYRDITREEHVTQFYLPGEVVGLDALSSGFHPGATIALETTSVCEIGPESIEELAHGDRTERGVGGCFLRVMSRAMHQERMMVRLFLNRTSDVRLASFLLALSGRFRQQGYSPFCFRLSMSRSDIGNYLGLAVETVSRLLGRFQHLGLLTAKGREIRIDDLEALAALADGRSRHSIWDTADEAPERLASMSTH”, the “soluble on expression in E. coli” value is reported as “not soluble”.
With “MGSDKIHHHHHHMTSSSRIAVRELPLFPLPEVVLFPTRPLPLHIFEFRYRIMMNTILESDRRFGVLMVDPVKGTIANVGCCAEIIHYQRLPDDRMKMLTLGQQRFRVLEYVREKPYRVGLVEWLEDHPPAKDLRPLATDVEQLLRDVVRLSAKITEQNIEIPEELPDLPTELSYWVASNLYGVAGEQQSLLEMQDTAARLEREAEILTTTRNHLAARSVLKDTFNPKL” the “soluble on expression in E. coli” value was “not soluble”.
In the case of “MGSDKIHHHHHHMTSSVASDLSSFVRFADIPPEFQPTDAHPIRVRSRLMPSGRRIARHTHAWAQVAYASRGVLRVATTGTTWMVPPSRAIWVPPHVTHEVVAVEDAFLRTLYITESTVPAGLDTPRVVEVSDLLREVIAALDTPGISATREQLLGALALDELTRSEPLPLSVPMPNEKRLRALCEAVIADPTHGESLEQWASSVGASTRTIARLFRQELGVSFSQWRQQAILARAIPLLSQGRPLSHVALELGYQSQSAFSAMFRRAFGESPRAFIERGSEHRVEDGERGDMETDNETAAQDRADVADVADVADDAGDAGDAGDTGDTGDTGDVGDVGDADDSEL”, the “soluble on expression in E. coli” value is reported as “not soluble”.
For “MGSDKIHHHHHHMTTINFLGGCREVGRSAVMVDGIMIDYGVKPSDPPEFPLNGLSPRAVILSHGHLDHIGVAPNLMYYDPEVILTPPSHELSMILLRDSMKIMHPPPFTKRELRQFESNIREVEYEEPITVGDYEVEFFNAGHIPGSASIHMRGDVNILYSGDIRLEETRLLEGANTDYPETDILIVESTYFGTEHPDRKELERAFVESVIDTLDMGGHAIIPAFAVGRTQEVLMILERYGITPYVDGMGKEVAQVIQRHPDFIRSPKELKRAVRNAIPVEWRQRERVLEEPSAVVTTAGMLNGGPAMFYISRLYNDEKSKILLTGYQVEGTNGDMALKTGMLNLGTRVVKLKMGVEQYDFSAHADDRQLKEYVKRVVDRGAEVVFTIHGEETEAFAEWIKDNIGVEAYAPKNGEIYVI”, the “soluble on expression in E. coli” value was “not soluble”.
With “MGSDKIHHHHHHMTTLNSEKVFRDPILGFIHVDDSIILDLINSHEMQRLRRIKHLGVANSVFHGGEQSRFQHSLGVYEISRRMIQALDDNEKFANERHWDHENDLLVQAAALLHDVGHGAYSHTFEHLFDTVHEQFTQKIIVDPSTEVNAILKTVSNDFPERVAAVIGKSYPDKRVVQLISSQLDADRMDYLLRDAYYTGAEYGRYDIERILRLMRPIKDGFAFDIAGVHSIEDYVISRYQMYLQVYFHPVSRGMEVVLENLLIRAQDIFDKDPDNPIFFPIIRPIFALKNKIDIQDYISLDDSVFNTAFNIWQKVDDKILADLSKRFLDRKPLKSIVLNEKTKDLIPSLRKKIKDRGFDPKYYTGENDATDLPYESYSPKTGEEGIKFVYPDGQQVELSKLSPLVEAINGKESIDRRFFFPREMLSNPEINQLYLKYKKTY” the “soluble on expression in E. coli” value was “not soluble”.
With “MGSDKIHHHHHHMTTPSETSPSRMNSTQAWVSYLSKVELPVLANTLRQINELTDSRNSTVNELANVILNDAQLTSQVLRLSNTVFYNQTRTQVSTVSRAITLIGFDAVKSMAISSLIVDSLLKRNDRPHLLRCLARAIHAAVQARCLMPKRTEHALEEVFIGALLMNIGELAFWSCETEQASELEERLRLEEPPVEAQKAVLHTTFTEITRGLVDAWSLGPFIKEVVAPGKANSMASSLVRNSVEMARVSENGWSGAEMDKVLEKLSDDIGETPAAIRDQLKVNAQEASKVAVSLGIPQVTALLPGNQESVPDAPAMDSDLQLQILRELTQTLAEKPDINEVCQLVIEGIHRAIGMQRVALLMTDRSGELLVPRKVGGRGTEEWREHFVIKKDGTGPLGPLLPHGTCAVYEPRKQTEGVPYDRWLGKVPALAGSLKAKGRLVGLFYADNAAAGYVPSEQQLAAFGHFIQNAQLCLTLMSARG” the “soluble on expression in E. coli” value was “not soluble”.
In the case of “MGSDKIHHHHHHMTVCIACGSTKVEPFLDLHETTLANKFLAPEEIGAVEPRHPLVVGFCPECSHVQLTHLVPPAAMFEDYLYISSLSKTLVGHLHGLAATVIERFKLGADDLFIDVGCNDGTLLSEAKRRGVRILGIDPAKNLAPLAKKNGVDTLVAFFGTETAAKVVAEHGKASVVTATNVFPHIPVLDDLVKGLDVVLKPGGVFVAEAHYLGDLLDACAFDTVYHEHCSYWSLHAAQYMFQRHGFEVVDIQRLPIHHGQLRLFAMRKGEGQPTAAVATLLAEEVKRGMTGIECYRAFAKRVEAIREELHAAFAGFKAAGKTVVGYGAPAKGNTLLSYIGFGPEQLAYIADKSPLKQGRVTPGTHIPVVGPERLLADQPDYVLLLAWNFADEILVEQAEYRARGGKFILPVPEVKIV”, the “soluble on expression in E. coli” value is reported as “not soluble”.
With “MGSDKIHHHHHHMTVIAVAGKGGTGKTLVSALLINFISEHTTSVLAVDADPDSNLPEALGVEKQVRKTLGEIRELFQVSRDEMGSMNKEQWLEGKIYAEAICECPRYDLLVMGRPEGEGCYCFANSLLRGVLKRLMRHYEYIIIDTEAGLEHFSRKTIDSADYIIIVTDMSRKGLATAKRIKELASELKLNFKKIFLIANRIASEDAEKTIREFAKEEGLELLAVLPYDSSVAEIDLRGEPVSKIDKNSEVYRKMKDVANLMLNLSAKAR” the “soluble on expression in E. coli” value was “not soluble”.
With “MGSDKIHHHHHHMTVLIKEEDFIQSIADGIQFISYYHPVDYIRHLARAYEREESPAARDAMAQILTNSRMCAEGKRPLCQDTGIVNVFLKVGMNVRFDTQRTLQELCDEGVRRGYLNPDNPLRASVLDDPLFARKNTRDNTPCILHVELVPGDTVDVQVASKGGGSENKSKFVMLNPSDSLVDWVLKTVPTMGAGWCPPGMLGIGVGGTAEKAMLMAKQSLMEDIDMYELLARGPQSKLEELRIELYEKVNALGIGAQGLGGLTTVLDVKISTFPTHAASKPVAMIPNCAATRHAHFVLDGSGPARLDPPSLSEWPEVHWAPDYNKSRQVDLDTLTKEEVASWKPGQTLLLSGKMLTGRDAAHKRIQDMLSKGESLPVDFTNRVIYYVGPVDPVRDEVVGPAGPTTATRMDKFTDMMLAQTGLISMIGKSERGPVAIESIRKHGSAYLMAVGGAAYLVSKAIRNAKVLAFEDLGMEAIYEFDVKDMPVTVAVDSQGTSVHTTGPKEWQARIGKIPVAVA” the “soluble on expression in E. coli” value was “not soluble”.
For “MGSDKIHHHHHHMTVRQIIQLAGTLDIPGLPQLDVTQDEISIANLTPLKLWAATAGWGASADDLGFEDRVTGNKIPLNGSATSSRLVNAFDGSQALSQGTAGAVLKDDSFSTAGSFTIAMNLCAINDELTCAPASSSVLPGSGQSYWFLASSAGKFRIGTTSLSTQFADYLGPLLSRTAWLRLILKYDRAVGTMTLYVNGVQQAKLTNDALKTLSLAPGLVMGGLVTTTATPTSPPCLMRSPMGFNSALSDSELALVDRYLSKTLY”, the “soluble on expression in E. coli” value was “not soluble”.
For “MGSDKIHHHHHHMTVVRQTAAEQATATGRRRASFHTLTVAEVRRLTDDAIEVTFGVPAELAGQYDYLPGQYVALRTTMPDENGQPHEVRRSYSICAEPRSFADGSSEIRVAIKKDLGGLFSTWANAELKPGDQLDVMSPMGAFVSKHGRDGKAVEQNVMNSMNHPEDLVGEPGSFVAIAAGSGITPVIAIARTLLAANPETRFDLIYANKAAMDVMFLEELADLKDKYPSRLALHHVLSREQRIAPLLSGRIDAEKLQALLGTAIHADDVDEWFLCGPFELVQLCRDTLAARGVQPEHVRFELFTSGKPDRPEGNIGRPVIADESKDTYKITFKLDGLEGKVESPTHARESLLNAALRVRPDVPFACAGGVCGTCRAKVVTGAVTMDENYALEQDELDKGYVLTCQSHPTTPEVTVDFDV”, the “soluble on expression in E. coli” value was “not soluble”.
In the case of “MGSDKIHHHHHHMTYINAQGRLKGCKPIAVIDIGSNSVRLVIYEGLVRSPTVLFNEKILCGLGQGVAKTGLLEENSMNMALRTLKRFRALCLQIGADEIYILATAAAREAKNGLAFIQNAENILQNKIYLLSGSEEAVYSAYGVISTFYQPKGISGDLGGGSLELIDIDNSEVGEGITLPLGGLRLQYMSNNDIAVAAKIAQEQFGKSAVVHKSMARCFYAVGGTWRNLAKLHMATKHYRLPVMHGYEVDAVEMEDFLRFVVNGSIENMKGISAVSKNRRQLLSYGAIILIELIRCVGFEKIIFSGAGVREGFLYSRLPQEVRVSDPLIAACTEMAILRARSPKQAEELIDFTTNAFEVFGILETENECRYRKAACLLADIGWRIHPDYRGNEAANQIALGSYPGISHEGRAYAALAVFFRNTGSLIGEESLPIFQLASKDVIEKARILGEIMRIAHLFSASTTGVLPHLSWHKKIDHVVLHIPARYADLLGERPLSRLKKLSKIIELPLAFEIF”, the “soluble on expression in E. coli” value is reported as “not soluble”.
In the case of “MGSDKIHHHHHHMVALTDPDLLFPPEAHSRSLARDLYAGIKDLPIVSPHGHTDPRWYALNEPFPDPAQLLIVPDHYIFRMLFSQGVRLEDLGVASLDGAPVETDGRTIWRRFAEHYYLFRGTPTRLWFDHVLAHLFGIEEPLDATTADRHYDTIATVLQWENFRPRALFERFNIEVIATTEGALDDLEWHKMIRDSGWEGRVVTAYRPDAVVDPDFEGFSANLDRLGEITGCDTGSWAGYLDAHRQRRAFFKSFGATSSDHGHPTAETANLSDAAAQELFNRIRRGSQDERERKLFRAQMLTEMAKMSRDDGLVLQIHPGSWRNHSPSVFQRFGRDKGFDIPTRTDYVTALKPLLDCVGLERDLTVILFTLDESSYARELAPLAGVYPALKLGPAWWFHDSPEGMRRFREMTTETAGFYNTVGFNDDTRAFPSIPARHDVARRVDCAFLARLVAEHRLREDEAHELARELAHTLAKKAYRL”, the “soluble on expression in E. coli” value is reported as “not soluble”.
In the case of “MGSDKIHHHHHHMVATLAEQIKAEAIALGFDKVGIASVDPPDTEALAALDRWLAQGYQAEMDWMASDRRRDVRNLLPNAQSVICVALNYYSGDHPDPSPEVGKIARYAWGRDYHRVVEKRLKALARWLQTQQPDCECRWYVDSGPIADKVWAQRAGLGWIAKNSNVISREFGSWIFLGELVTTLALPADRPHTAHCGSCSRCLEACPTQAIVEPYVVDANRCIAYHTIENRAADLPAAIAQNLQGWVAGCDICQEVCPWNQRFAQITTLPDLQPRSELLAPALAELATLSEEAWDQQFQGSALRRIKPAMWRRNSRANLRQQSEGNRLS”, the “soluble on expression in E. coli” value is reported as “not soluble”.
For “MGSDKIHHHHHHMVATPNSSYISPEDYLKGEETSPIKHEYRQGQVYAMAGASNAHVIISLNIASMLRNHLRGSGCQAYISDTKVHIESINVYYYPDVTVSCDQRDRAFNNFLRYPCLIVEVLSPTTEAFDRGDKFADYRQMESLQEYVLISQTRLNVECFRRNPESQWVLYPYGKEDIIHLASVDFRCAVADFYEDVTFESL”, the “soluble on expression in E. coli” value was “not soluble”.
For “MGSDKIHHHHHHMVDSLQKPELEELRPGIKAPAKETILTPRFYTTDFEAMAKMDLSPNEDELRAILEEFRADYNRKHFVRTPEFDGSAADMDPETKKVFVEFLEQSCTSEFSGFLLYKELSRRIKNRNPLLAECFELMARDEARHAGFLNKSMSDFDLQLDLGFLTANKKYTYFKPAYIFYATYLSEKIGYWRYITIFRHLEQHPEYRIYPIFKFFENWCQDENRHGDFFDALMKAQPSTVRGFVAKLWCRFFLLAVFATMYIRDVQRKEFYEALGLDAREYDRHVIAKTNETSARVFPVVLDVDHPKFYDRLETCIANNNQLAAIEATSAPKPVKVLRKLPYYLSNGLQLLKLYLVKPLESDVYQPAVR”, the “soluble on expression in E. coli” value was “not soluble”.
